The numbers were not newly measured in article PMC4737190, which cites them from elsewhere.

Several values for one entry are separate records, joined by “and”; a condition that tells them apart may be missing. Equal entries are not always repeated.

This data set deals with linear (Met1-linked) di-ubiquitin (Homo sapiens) (UniProt P0CG47).

NEMO UBAN, sequence (Q9Y6K9 242-350): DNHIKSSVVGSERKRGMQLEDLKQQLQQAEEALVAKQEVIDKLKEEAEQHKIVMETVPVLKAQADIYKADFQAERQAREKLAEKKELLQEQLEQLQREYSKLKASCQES

Consider NEMO UBAN (from UniProt Q9Y6K9), for which the Kd was 1.6 µM and 3.7 µM.
